Measured values: patent publication US20160257711A1 (BOARD OF TRUSTEES OF THE UNIVERSITY OF ILLINOIS, published 2016)

Target: T1, integrin αIIbβ3 of human platelets (human, UniProt P08514 32-1039)
T1 construct: whole, on cells; Endogenous receptor; also called integrin β3; glycoprotein IIb-IIIa
Assay: co-IP from platelet lysates and GST pull-downs

B1: Gα13 (G protein α subunit), endogenous protein of human platelets (other)
chain: MADFLPSRSVLSVCFPGCLLTSGEAEQQRKSKEIDKCLSREKTYVKRLVKILLLGAGESGKSTFLKQMRIIHGQDFDQRAREEFRPTIYSNVIKGMRVLVDAREKLHIPWGDNSNQQHGDKMMSFDTRAPMAAQGMVETRVFLQYLPAIRALWADSGIQNAYDRRREFQLGESVKYFLDNLDKLGEPDYIPSQQDILLARRPTKGIHEYDFEIKNVPFKMVDVGGQRSERKRWFECFDSVTSILFLVSSSEFDQVLMEDRLTNRLTESLNIFETIVNNRVFSNVSIILFLNKTDLLEEKVQIVSIKDYFLEFEGDPHCLRDVQKFLVECFRNKRRDQQQKPLYHHFTTAINTENIRLVFRDVKDTILHDNLKQLMLQ
notes: Endogenous Gα13 in detergent lysates of washed human platelets, precipitated or detected with anti-Gα13 antibody; also called G protein subunit Gα13
binding result: binds
